This data set in a line: yeast display, Sf9 membrane polyspecificity reagent, FACS + sequencing; frameworks hold sequencing errors. Summed up:
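Nanobodies from a synthetic yeast display library (Saccharomyces cerevisiae BJ5465), induced 36–48 hours with galactose, were stained 1 hour at 4 °C with 10% biotinylated, detergent-solubilized Sf9 membrane reagent, enriched on streptavidin microbeads, then FACS-sorted. Anti-HA (expression) and streptavidin (reagent binding) fluorescence set low and high (top ~1%) gates. Polyreactivity labels come from the gate of origin. Genes were colony-PCR amplified, MiSeq 2 × 250 sequenced and filtered by CDR length.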
In the case of “QVQLVESGGGLVQAGGSLRLSCAASGRTFYRYAMGWYRQAPGKERELVASITWSGGSTYYADSVKGRFTISRDNAKNTVYLQMNSLKPEDTAVYYCAAISAVTLRGYYYWGQGTQVTVSS”, the “polyreactivity (PSR sort gate)” value was “high polyreactivity”.

Take “QVQLVESGGGLVQAGGSLRLSCAASGFTFAYNAMGWYRQAPGKETELVAAINSGGGRTYYADSVKGRFTISRDNAKNTVYLQMNSLKPEATAVYYCNAYPYKLDYDYWGQGTQVTVSS”: the “polyreactivity (PSR sort gate)” value is listed as “high polyreactivity”.

Take “QVQLVESGGGLVQAGGSLRLSCAASGFTFFTNAMGWYRQAPGKEREFVAAISKSGSRTYYADSVKGRFTISRDNAKNTVYLQMNSLKPEDTAVYYCAAGYVTLFGFYRYYLWGQGTQVTVSS”: the “polyreactivity (PSR sort gate)” value is on record as “high polyreactivity”.

Take “QVQLVESGGGLVQAGRSLRLSCAASGLTFLYYAMGWYRHAPAKEMEFVAANSNRDGSTYYADSVKGRFTISRDNAKNTVYLQMNSLKPEDTAGYYCYADGYVDYCFLKYRFEFDYWGQGTQVTVSS”: the “polyreactivity (PSR sort gate)” value is on record as “low polyreactivity”.

Consider “QVQLVESGGGLVQAGGSLRLSSASSGFTFNSYAMGWYRQAPGKERELVAAIDTGDDITYYADSVKGRFTISRDNAKNTVYLQMNSLKPVDTAVYYCAAKSRRQYTVGLSSDYWGQGTQVTVSS”, for which the “polyreactivity (PSR sort gate)” value was “high polyreactivity”.

Consider “QVQLVESGGGLVQAGGSLRLSCAASGSTLGVNAMGRYRQAPGKEREFVAAITGRGGNSYYADSVKGRFTISRDNAKNTVYLKMNSLKPEDTAVYYCAAERQPYRTSSYNYWGQGSQVTVSS”, for which the “polyreactivity (PSR sort gate)” value is listed as “high polyreactivity”.

With “QVQLVESGGGLVQAGGSLRLSCAASGSTLALYAMGWYRQAPGKERELVAVITSGGSTDYADSVKGRFTISRDNAKNTVYLQMNSLKPEDTAVYYCAAEGRPGKYSYVYWGQGTQVTVSS”, the “polyreactivity (PSR sort gate)” value is “low polyreactivity”.

As to “QVQLVESGGGLVQAGGSLRLSCAASGRIFDHNAMGWYRQAPGKERELVAAIDWSGGSTYYADSVKGRFTISRDNAKNTVYLQMNSLKPEDTAVYYCNVYWHTFSWDDYGYWGQGTQVTVSS”, the “polyreactivity (PSR sort gate)” value is “low polyreactivity”.

Consider “QVQLVESGGGLVQAGGSLRLSCAASGSTFYYNAMGWYRQAPGKERELVAAIRTSGGRTYYADSVKGRFTISRDNAKNTVYLQMNSLKPEDTAVYYCAADGTAVHYTYDYWGQGTQVTVSS”, for which the “polyreactivity (PSR sort gate)” value is given as “low polyreactivity”.

As for “QVQLQDSGGGLVQAGGSLRQRCAASGYISSLAAMGWYRQAPGKERDLVAGNDLGTITNYADSVKGSLTISRDNAKNTVYLQMNSLIPEDTAVYYCAPTWYYHYNDWKHWYEYGYWGQGTQVTVSS”, the “polyreactivity (PSR sort gate)” value is recorded as “low polyreactivity”.

In the case of “QVQLVESGGGLVQAGGSLRLSCAASGITFAYKAMGWYRQAPGTERELVARITSGGRTYYSDSVKARFTISRDNAMNTVYLQMNSLKPEDTAVYYCNAKEGSRYRKYDYWGQGTQVTVSS”, the “polyreactivity (PSR sort gate)” value was “low polyreactivity”.

For “QVQLVESGGGLVQAGGSLRLSCAASGYIFAAYTMGWYRQAPGKEREFVAAITRSGGSTYYADSVKWRFTISRDNAKNTVYLQMNSLKPEDTAVYYCAARRWRYFPDYDYWGQGTQVTVSS”, the “polyreactivity (PSR sort gate)” value is “high polyreactivity”.

Regarding “QVQIVESGGGLVQAGGSLRLSCAASGIIFYNYAMGWYREAPGKERELVAAITGTGSRTYYADSVKGRFTISRDNAKNTVYLQMNSLNPEDTAVYYCAVNTRRYWYGYWGQGTQVTVSS”, the “polyreactivity (PSR sort gate)” value is listed as “high polyreactivity”.

Turning to “QVQLVESGGGLVQAGGSLRLSCAASGITFKYYVMGWYRQAPGKERELVAAISYDGGSTYYADSVKGRFTISRDNAKNTVYLQMNSLKPEDTAVYYCAAPVWIDGDESGYEYDYWGQGTQVTVSS”, the “polyreactivity (PSR sort gate)” value is reported as “low polyreactivity”.

On to “QVQLVESGGGLVQAGGSLRLSCAASGRTFSGNAMGWYRQAPGKERELVAAITGRGGTTYYADSVKGRFTISRDNAKNTVYLQMNSLKPEDTAVYYCAADTKLSYQWFDYWGQGTQVTVSS”, for which the “polyreactivity (PSR sort gate)” value is “high polyreactivity”.

Turning to “QVQLVESGGGILQAGGSLRLSCAASGITFVVYAMGCYRQAPGKERELVDSITYSGGSTYYADSVKGRFTISRDNAKNTVYLQMISLKPEDTAFYYCNADGYSIYYLPYSDYDAYDYWGQGTQVTVSS”, the “polyreactivity (PSR sort gate)” value was “low polyreactivity”.

Values taken from the nanobody polyreactivity screen of Harvey et al. (2022).
